Blank lines part the entries; values can stand above or below the binder they belong to. *1 amine or outer side, *2 acyl side, *3 side chain or, on linkers, in order; H or OH if unused. Side-chain parts run from the residue outwards. The star is where a group is joined. C18 diacid = O=C(O)CCCCCCCCCCCCCCCCC(=O)*; γGlu = O=C(O)[C@H](CCC(=O)[*:2])N[*:1]; Isovaleryl = CC(C)CC(=O)*; AEEA = NCCOCCOCC(=O)O
Target: T1, human neuropeptide Y2 receptor (human, UniProt P49146 1-381)
T1 construct: whole, on cells; also called hNPY2 receptor; hNPY2-R
T1 sequence (looked up): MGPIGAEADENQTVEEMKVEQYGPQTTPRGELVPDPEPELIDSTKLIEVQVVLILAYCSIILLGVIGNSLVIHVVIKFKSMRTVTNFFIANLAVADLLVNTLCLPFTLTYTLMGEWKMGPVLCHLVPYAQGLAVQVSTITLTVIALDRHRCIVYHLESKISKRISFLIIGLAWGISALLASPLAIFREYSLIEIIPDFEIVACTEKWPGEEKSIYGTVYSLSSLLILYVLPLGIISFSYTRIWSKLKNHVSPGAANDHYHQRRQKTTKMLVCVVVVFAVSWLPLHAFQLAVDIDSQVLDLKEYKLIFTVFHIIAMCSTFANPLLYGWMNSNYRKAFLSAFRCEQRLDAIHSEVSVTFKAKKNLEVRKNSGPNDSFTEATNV
Test: radioligand competition (125I-PYY(1-36)), hNPY2R membranes
Outline: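 Commercial human Y2 receptor membranes (0.5 μg protein/well) were incubated with peptide for 2 h at room temperature in 50 mM HEPES, 5 mM MgCl₂, 1 mM CaCl₂, pH 7.4, with 0.2% ovalbumin. Bound radioligand was separated on PEI-soaked GF/C filters and counted by scintillation, and IC₅₀ came from nonlinear sigmoidal regression.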

B4: Compound 86 (peptide)
peptide: Isovaleryl-APEK([AEEA-AEEA-γGlu-C18 diacid])PEADASPEELQRYEVSLRHYYNWLTRQRY-NH2
SMILES: CC(C)CC(=O)N[C@@H](C)C(=O)N1CCC[C@H]1C(=O)N[C@@H](CCC(=O)O)C(=O)N[C@@H](CCCCNC(=O)COCCOCCNC(=O)COCCOCCNC(=O)CC[C@H](NC(=O)CCCCCCCCCCCCCCCCC(=O)O)C(=O)O)C(=O)N1CCC[C@H]1C(=O)N[C@@H](CCC(=O)O)C(=O)N[C@@H](C)C(=O)N[C@@H](CC(=O)O)C(=O)N[C@@H](C)C(=O)N[C@@H](CO)C(=O)N1CCC[C@H]1C(=O)N[C@@H](CCC(=O)O)C(=O)N[C@@H](CCC(=O)O)C(=O)N[C@@H](CC(C)C)C(=O)N[C@@H](CCC(N)=O)C(=O)N[C@@H](CCCNC(=N)N)C(=O)N[C@@H](Cc1ccc(O)cc1)C(=O)N[C@@H](CCC(=O)O)C(=O)N[C@H](C(=O)N[C@@H](CO)C(=O)N[C@@H](CC(C)C)C(=O)N[C@@H](CCCNC(=N)N)C(=O)N[C@@H](Cc1c[nH]cn1)C(=O)N[C@@H](Cc1ccc(O)cc1)C(=O)N[C@@H](Cc1ccc(O)cc1)C(=O)N[C@@H](CC(N)=O)C(=O)N[C@@H](Cc1c[nH]c2ccccc12)C(=O)N[C@@H](CC(C)C)C(=O)N[C@H](C(=O)N[C@@H](CCCNC(=N)N)C(=O)N[C@@H](CCC(N)=O)C(=O)N[C@@H](CCCNC(=N)N)C(=O)N[C@@H](Cc1ccc(O)cc1)C(N)=O)[C@@H](C)O)C(C)C
Ki: 1.19 nM

B5: Compound 87 (peptide)
peptide: Isovaleryl-APEK([AEEA-AEEA-γGlu-C18 diacid])PEEDSSPAELQRYYVSLRHYYNWLTRQRY-NH2
SMILES: CC(C)CC(=O)N[C@@H](C)C(=O)N1CCC[C@H]1C(=O)N[C@@H](CCC(=O)O)C(=O)N[C@@H](CCCCNC(=O)COCCOCCNC(=O)COCCOCCNC(=O)CC[C@H](NC(=O)CCCCCCCCCCCCCCCCC(=O)O)C(=O)O)C(=O)N1CCC[C@H]1C(=O)N[C@@H](CCC(=O)O)C(=O)N[C@@H](CCC(=O)O)C(=O)N[C@@H](CC(=O)O)C(=O)N[C@@H](CO)C(=O)N[C@@H](CO)C(=O)N1CCC[C@H]1C(=O)N[C@@H](C)C(=O)N[C@@H](CCC(=O)O)C(=O)N[C@@H](CC(C)C)C(=O)N[C@@H](CCC(N)=O)C(=O)N[C@@H](CCCNC(=N)N)C(=O)N[C@@H](Cc1ccc(O)cc1)C(=O)N[C@@H](Cc1ccc(O)cc1)C(=O)N[C@H](C(=O)N[C@@H](CO)C(=O)N[C@@H](CC(C)C)C(=O)N[C@@H](CCCNC(=N)N)C(=O)N[C@@H](Cc1c[nH]cn1)C(=O)N[C@@H](Cc1ccc(O)cc1)C(=O)N[C@@H](Cc1ccc(O)cc1)C(=O)N[C@@H](CC(N)=O)C(=O)N[C@@H](Cc1c[nH]c2ccccc12)C(=O)N[C@@H](CC(C)C)C(=O)N[C@H](C(=O)N[C@@H](CCCNC(=N)N)C(=O)N[C@@H](CCC(N)=O)C(=O)N[C@@H](CCCNC(=N)N)C(=O)N[C@@H](Cc1ccc(O)cc1)C(N)=O)[C@@H](C)O)C(C)C
Ki: 1.97 nM

The remaining binders from weak to strong by Ki, led by results:

Ki: 6.96 nM
B2: Compound 80 (peptide)
peptide: Isovaleryl-APEK([AEEA-AEEA-γGlu-C18 diacid])PEEEASPEETQRYYVSLRHYYNWLTRQRY-NH2
SMILES: CC(C)CC(=O)N[C@@H](C)C(=O)N1CCC[C@H]1C(=O)N[C@@H](CCC(=O)O)C(=O)N[C@@H](CCCCNC(=O)COCCOCCNC(=O)COCCOCCNC(=O)CC[C@H](NC(=O)CCCCCCCCCCCCCCCCC(=O)O)C(=O)O)C(=O)N1CCC[C@H]1C(=O)N[C@@H](CCC(=O)O)C(=O)N[C@@H](CCC(=O)O)C(=O)N[C@@H](CCC(=O)O)C(=O)N[C@@H](C)C(=O)N[C@@H](CO)C(=O)N1CCC[C@H]1C(=O)N[C@@H](CCC(=O)O)C(=O)N[C@@H](CCC(=O)O)C(=O)N[C@H](C(=O)N[C@@H](CCC(N)=O)C(=O)N[C@@H](CCCNC(=N)N)C(=O)N[C@@H](Cc1ccc(O)cc1)C(=O)N[C@@H](Cc1ccc(O)cc1)C(=O)N[C@H](C(=O)N[C@@H](CO)C(=O)N[C@@H](CC(C)C)C(=O)N[C@@H](CCCNC(=N)N)C(=O)N[C@@H](Cc1c[nH]cn1)C(=O)N[C@@H](Cc1ccc(O)cc1)C(=O)N[C@@H](Cc1ccc(O)cc1)C(=O)N[C@@H](CC(N)=O)C(=O)N[C@@H](Cc1c[nH]c2ccccc12)C(=O)N[C@@H](CC(C)C)C(=O)N[C@H](C(=O)N[C@@H](CCCNC(=N)N)C(=O)N[C@@H](CCC(N)=O)C(=O)N[C@@H](CCCNC(=N)N)C(=O)N[C@@H](Cc1ccc(O)cc1)C(N)=O)[C@@H](C)O)C(C)C)[C@@H](C)O

Ki: 4.52 nM
B1: Compound 79 (peptide)
peptide: Isovaleryl-APEK([AEEA-AEEA-γGlu-C18 diacid])PEEEASEEELQRYYVSLRHYYNWLTRQRY-NH2
SMILES: CC(C)CC(=O)N[C@@H](C)C(=O)N1CCC[C@H]1C(=O)N[C@@H](CCC(=O)O)C(=O)N[C@@H](CCCCNC(=O)COCCOCCNC(=O)COCCOCCNC(=O)CC[C@H](NC(=O)CCCCCCCCCCCCCCCCC(=O)O)C(=O)O)C(=O)N1CCC[C@H]1C(=O)N[C@@H](CCC(=O)O)C(=O)N[C@@H](CCC(=O)O)C(=O)N[C@@H](CCC(=O)O)C(=O)N[C@@H](C)C(=O)N[C@@H](CO)C(=O)N[C@@H](CCC(=O)O)C(=O)N[C@@H](CCC(=O)O)C(=O)N[C@@H](CCC(=O)O)C(=O)N[C@@H](CC(C)C)C(=O)N[C@@H](CCC(N)=O)C(=O)N[C@@H](CCCNC(=N)N)C(=O)N[C@@H](Cc1ccc(O)cc1)C(=O)N[C@@H](Cc1ccc(O)cc1)C(=O)N[C@H](C(=O)N[C@@H](CO)C(=O)N[C@@H](CC(C)C)C(=O)N[C@@H](CCCNC(=N)N)C(=O)N[C@@H](Cc1c[nH]cn1)C(=O)N[C@@H](Cc1ccc(O)cc1)C(=O)N[C@@H](Cc1ccc(O)cc1)C(=O)N[C@@H](CC(N)=O)C(=O)N[C@@H](Cc1c[nH]c2ccccc12)C(=O)N[C@@H](CC(C)C)C(=O)N[C@H](C(=O)N[C@@H](CCCNC(=N)N)C(=O)N[C@@H](CCC(N)=O)C(=O)N[C@@H](CCCNC(=N)N)C(=O)N[C@@H](Cc1ccc(O)cc1)C(N)=O)[C@@H](C)O)C(C)C

Ki: 1.56 nM
B3: Compound 85 (peptide)
peptide: Isovaleryl-APEK([AEEA-AEEA-γGlu-C18 diacid])PEEDASPEELQRYAVSLRHYYNWLTRQRY-NH2
SMILES: CC(C)CC(=O)N[C@@H](C)C(=O)N1CCC[C@H]1C(=O)N[C@@H](CCC(=O)O)C(=O)N[C@@H](CCCCNC(=O)COCCOCCNC(=O)COCCOCCNC(=O)CC[C@H](NC(=O)CCCCCCCCCCCCCCCCC(=O)O)C(=O)O)C(=O)N1CCC[C@H]1C(=O)N[C@@H](CCC(=O)O)C(=O)N[C@@H](CCC(=O)O)C(=O)N[C@@H](CC(=O)O)C(=O)N[C@@H](C)C(=O)N[C@@H](CO)C(=O)N1CCC[C@H]1C(=O)N[C@@H](CCC(=O)O)C(=O)N[C@@H](CCC(=O)O)C(=O)N[C@@H](CC(C)C)C(=O)N[C@@H](CCC(N)=O)C(=O)N[C@@H](CCCNC(=N)N)C(=O)N[C@@H](Cc1ccc(O)cc1)C(=O)N[C@@H](C)C(=O)N[C@H](C(=O)N[C@@H](CO)C(=O)N[C@@H](CC(C)C)C(=O)N[C@@H](CCCNC(=N)N)C(=O)N[C@@H](Cc1c[nH]cn1)C(=O)N[C@@H](Cc1ccc(O)cc1)C(=O)N[C@@H](Cc1ccc(O)cc1)C(=O)N[C@@H](CC(N)=O)C(=O)N[C@@H](Cc1c[nH]c2ccccc12)C(=O)N[C@@H](CC(C)C)C(=O)N[C@H](C(=O)N[C@@H](CCCNC(=N)N)C(=O)N[C@@H](CCC(N)=O)C(=O)N[C@@H](CCCNC(=N)N)C(=O)N[C@@H](Cc1ccc(O)cc1)C(N)=O)[C@@H](C)O)C(C)C

Reference: patent US20210139548A1 (published 2021)
